The values below come from the DeepSol protein solubility set.

This data set in a line: soluble on expression in E. coli; label from the status in PepcDB or PDB records.
With “QTIKDFLAVAMKKWTAPFEPFQLIDNIYYVGTDGIAVYVIKTSQGLILMDTAMPQSTGMIKDNIAKLGFKVADIKLILNTHAHLDHTGGFAEIKKETGAQLVAGERDKPLLEGGYYPGDEKNEDLAFPAVKVDRAVKEGDRVTLGDTTLTAHATPGHSPGCTSWEMTVKDGKEDREVLFFCSGTVALNRLVGQPTYAGIVDDYRATFAKAKAMKIDVLLGPHPEVYGMQAKRAEMKDGAPNPFIKPGELVTYATSLSEDFDKQLAKQTAALEKK”, the “soluble on expression in E. coli” value is “soluble”.

Turning to “MTAALHIGHLSKSFQNTPVLNDISLSLDPGEILFIIGASGCGKTTLLRCLAGFEQPDSGEISLSGKTIFSKNTNLPVRERRLGYLVQEGVLFPHLTVYRNIAYGLGNGKGRTAQERQRIEAMLELTGISELAGRYPHELSGGQQQRAALARALAPDPELILLDEPFSALDEQLRRQIREDMIAALRANGKSAVFVSHDREEALQYADRIAVMKQGRILQTASPHELYRQPADLDAALFIGEGIVFPAALNADGTADCRLGRLPVQSGAPAGTRGTLLIRPEQYSLHPHSAPAASIHAVVLKTTPKARHTEISLRAGQTVLTLNLPSAPTLSDGISAVLHLDGPALFFPGNTLEHHHHHH”, the “soluble on expression in E. coli” value is reported as “soluble”.

Consider “NAADGIFFPALEQNMMGAVLINENDEVMFFNPAAEKLWGYKREEVIGNNIDMLIPRDLRPAHPEYIRHNREGGKARVEGMSRELQLEKKDGSKIWTRFALSKVSAEGKVYYLALVRDAS”, for which the “soluble on expression in E. coli” value is “soluble”.

For the sequence “MGSDKIHHHHHHMRSIKNITLGLATVGVMSLSGCAGDYLDTIPSTSVSETTINTSLDNLYIALNGIHKEMVSQESGYQCLGGEPGFMMSRDAEADDMNWQTNTWMKAAYLGWQCNMNETNGYNYKFWQIYYQWILNANKILAGLEEVEITSQELFDQIKGEALCIRAWAHFNLVQLYAKRYEAGKDNTQDGIPYREKAVAEEQARNSVEDVYAKINNDLDEACILLSGIKVNDVNHYSEMVAWGLKARVALAMQDYNNAAVYAGKSVSLAEAGGHRLMTGSQLNCGFANITTDTKEAMYAAMTPDDKTVYFYSYYAYMSWNFNSSAIRQGVKCINVDAYETMSETDLRRAWWDPTGEASVPSSSYAKNAYQNRKFTARSTADAVGDVAFMRLAEMYLTQAEALARAGKDSEAQAVFTKFQITRDPSYVSKGNIGDALAEEIMNSRRVELWGEGFRFL”, the “soluble on expression in E. coli” value is listed as “not soluble”.

On to “MSLTSRVSGVISTDEIIVILSVFVRYDVEQPSKLDRVRADYNVHYWSQGFFGIDDQGEVYVSPRKDKAHQTQLSSIVKQLEARDLNLPVLVRFPQILHQRVHNICDAFNQAIEEYDYPNKYLLVYPIKVNQQKEVVDEILASQAELEHKQLGLEAGSKPELLAVLAMAQQASSVIVCNGYKDREYIRLALIGEKLGHKVFIVLEKLSELDLVLKEAKSLGVKPRLGLRIRLASQGAGKWQSSGGEKSKFGLAASQVLTVINRLKAENQLEALQLVHFHLGSQMANIRDVRNGVNEAVRFYCELRELGAHIDFFDVGGGLAVDYDGTRSQSSNSMNYGLHEYARNIVSTVSDVCNLYGQPRPVIISESGRSITAHHAVLITNVIGTEAYSPEEIPAPGADAPMLLKNMWRGFEEVQHGTDDRALIEIYNDTQSDLSEAHSQFATGVLNLEHRAWAEQLSLRIYHELRQKMSNKNRFHRPILDELQERLADKFFVNFSLFQSLPDAWGIDQVFPVLPLSGLEEMNDRRAVMLDITCDSDGAVEQYVEGQGIESTLPVPAWTSDKPYLMGFFLVGAYQEILGDMHNLFGDTHSAVVNINDNGESEIAFINEGDTVEDMMRYVHIDVDKIRTNYRQLVSQRVAKEEQETVLAELELGLSGYTYLEDFEGHHHHHH”, for which the “soluble on expression in E. coli” value was “soluble”.

Consider “MRTVEVVGRGPAVDALAAFLADIDVSVAQPSTPADSSGDLAIVVDTVGSERFAAWNDRAKDDAIPWVAVELGGVGGVPVTDAAISGFGPETGCFDCLRTRVEATVDDTEEVTGAPAAATQRFAGALAGRLVTQFLDGDAALLGTVTELPHTQRRFLPVPGCDCGGTQGHSLGDGRQTAPDSEALSRAELGLDDRVGIATEVGEVESFPAPYYLSTLADTAGFSDVSAAAKAAGVAIDWDTAFMKALGENYERYAAGVYREGNLQHGTVADVPAAVTPDTFVRDEAEWDESHALPWVPAENLLTDEQRSLPAETVHYPPPSNAVRPATTTGLGLGNTVTEALLTGLYEVIERDAAMLSWYSTFDPLRVAIDEHEQYETLRRRATSEGLDVTALLLTQDVDVPVITVALAQDEWPRFALGTDADLNPGAAAVGALEEALQNWMELDSMGPEAAMDAQGAIGRYAKSPGEAADLTASETAVPLDSLGPDVDLSGEAELETLCDRAADAGLAPYGTRLTTRDLEQLGFEAVRVVCPSAQPLFFGESFFGERAETVPADLGFEPRLDRDHHPFP”, for which the “soluble on expression in E. coli” value was “soluble”.
